Bridges are numbered along the chain shown (N, C = ends). [ ]: non-standard residue; d: D form. The star is where a group is joined. mli = maleimide cyclization element: 3,4-maleimide inserted symmetrically, forming a vinyl thioether with each Cys sulfur; Ttds = 1,13-diamino-4,7,10-trioxatridecan-succinamic acid, NCCCOCCOCCOCCCNC(=O)CCC(=O)*; mli(DOTA-Ttd) = 3,4-N-(DOTA-Ttd)-maleimide bridging two Cys S atoms as vinyl thioethers; DOTA = O=C(O)CN1CCN(CC(=O)O)CCN(CC(=O)*)CCN(CC(=O)O)CC1; Nle = CCCC[C@H](N)C(=O)O; Hexanoyl = CCCCCC(=O)*
B1: compound DOTA-Nle-[Cys-Pro-Pro-Thr-Glu-Phe-Cys]-Asp-NH2 (1004) (peptide)
peptide: CPPTEFCD
HELM: PEPTIDE1{[O=C(O)CN1CCN(CC(=O)O)CCN(CC(=O)[*:2])CCN(CC(=O)O)CC1].[Nle].C.P.P.T.E.F.C.D.[am]}$PEPTIDE1,PEPTIDE1,3:R3-9:R3$$$V2.0
SMILES: CCCC[C@H](NC(=O)CN1CCN(CC(=O)O)CCN(CC(=O)O)CCN(CC(=O)O)CC1)C(=O)N[C@H]1CSSC[C@@H](C(=O)N[C@@H](CC(=O)O)C(N)=O)NC(=O)[C@H](Cc2ccccc2)NC(=O)[C@H](CCC(=O)O)NC(=O)[C@H]([C@@H](C)O)NC(=O)[C@@H]2CCCN2C(=O)[C@@H]2CCCN2C1=O
B2: compound DOTA-Ttds-Nle-[Cys-Pro-Pro-Thr-Glu-Phe-Cys]-Asp-NH2 (1003) (peptide)
peptide: {DOTA-Ttds}-[Nle]CPPTEFCD-NH2
modifications: disulfide 2-8
B3: compound Hex-[Cys(mli(DOTA-Ttd))-Pro-Pro-Thr-Glu-Phe-Cys]-Asp-NH2 (2020) (peptide)
peptide: Hexanoyl-CPPTEFCD-NH2
modifications: linker 1-7 via mli(DOTA-Ttd)
B4: compound DOTA-Ttds-Nle-[Cys(mli)-Pro-Pro-Thr-Glu-Phe-Cys]-Asp-NH2 (2007) (peptide)
peptide: {DOTA-Ttds}-[Nle]CPPTEFCD-NH2
modifications: linker 2-8 via mli

Biological target: fibroblast activation protein (FAP) on FAP-expressing human WI-38 fibroblasts (human), Q12884
Experiment: competitive FACS on WI-38 cells vs 3 nM Cy5-labeled probe; A = pIC50 >7.0
Conditions: remark: other sources report otherwise

| pIC50 Category (FACS) [pIC50] | Binder |
| --- | --- |
| > 7 | B1 |
| > 7 | B2 |
| > 7 | B3 |
| > 7 | B4 |
